# T1: STK4 (residues 1–326) K59R N239A (human, UniProt Q13043 1-326, K59R | N239A)
# T1 sequence: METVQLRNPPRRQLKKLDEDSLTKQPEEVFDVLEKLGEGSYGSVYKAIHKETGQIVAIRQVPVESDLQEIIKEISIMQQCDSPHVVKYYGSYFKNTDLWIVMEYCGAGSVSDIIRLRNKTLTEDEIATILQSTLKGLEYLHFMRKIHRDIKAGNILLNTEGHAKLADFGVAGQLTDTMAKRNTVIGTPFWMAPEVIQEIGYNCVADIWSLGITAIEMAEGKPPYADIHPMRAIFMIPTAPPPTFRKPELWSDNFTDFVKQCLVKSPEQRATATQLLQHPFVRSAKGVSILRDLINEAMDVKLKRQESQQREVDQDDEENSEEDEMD
# T2: STK4 (residues 1–326) K59R (human, UniProt Q13043 1-326, K59R)
# T2 sequence: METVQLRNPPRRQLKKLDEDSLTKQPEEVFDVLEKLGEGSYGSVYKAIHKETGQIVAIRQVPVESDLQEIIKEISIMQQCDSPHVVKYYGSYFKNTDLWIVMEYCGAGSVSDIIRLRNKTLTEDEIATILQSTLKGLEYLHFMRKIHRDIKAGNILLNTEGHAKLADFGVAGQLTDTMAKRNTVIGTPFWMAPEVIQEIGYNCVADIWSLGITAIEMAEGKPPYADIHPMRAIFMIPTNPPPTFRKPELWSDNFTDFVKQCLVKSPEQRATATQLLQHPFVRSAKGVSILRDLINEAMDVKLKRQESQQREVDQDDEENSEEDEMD
# T3: STK4 (residues 11–326) K59R (human, UniProt Q13043 11-326, K59R)
# T3 sequence: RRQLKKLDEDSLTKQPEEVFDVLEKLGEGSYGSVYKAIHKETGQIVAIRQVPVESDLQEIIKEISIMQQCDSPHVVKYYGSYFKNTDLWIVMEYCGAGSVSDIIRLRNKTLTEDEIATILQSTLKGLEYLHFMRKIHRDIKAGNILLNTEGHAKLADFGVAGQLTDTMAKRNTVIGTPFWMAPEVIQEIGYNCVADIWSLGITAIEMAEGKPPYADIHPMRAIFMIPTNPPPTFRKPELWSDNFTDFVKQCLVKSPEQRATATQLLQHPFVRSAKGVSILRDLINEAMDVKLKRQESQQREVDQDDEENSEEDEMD
# Assays:
# [1] = biological target: T1, STK4 (residues 1–326) K59R N239A; assay: ITC; printed as R239A
# [2] = biological target: T2, STK4 (residues 1–326) K59R; assay: ITC
# [3] = biological target: T3, STK4 (residues 11–326) K59R; assay: ITC
Kd [1],Kd [2],Kd [3],Binder
149 µM,–,–,HOIP (residues 854–1072) (domain or fragment) EYQAQGLAMYLQENGIDCPKCKFSYALARGGCMHFHCTQCRHQFCSGCYNAFYAKNKCPEPNCRVKKSLHGHHPRDCLFYLRDWTALRLQKLLQDNNVMFNTEPPAGARAVPGGGCRVIEQKEVPNGLRDEACGKETPAGYAGLCQAHYKEYLVSLINAHSLDPATLYEVEELETATERYLHVRPQPLAGEDPPAYQARLLQKLTEEVPLGQSIPRRRK
–,36.4 µM,34.7 µM,HOIP (residues 697–1072) (domain or fragment) QECAVCGWALPHNRMQALTSCECTICPDCFRQHFTIALKEKHITDMVCPACGRPDLTDDTQLLSYFSTLDIQLRESLEPDAYALFHKKLTEGVLMRDPKFLWCAQCSFGFIYEREQLEATCPQCHQTFCVRCKRQWEEQHRGRSCEDFQNWKRMNDPEYQAQGLAMYLQENGIDCPKCKFSYALARGGCMHFHCTQCRHQFCSGCYNAFYAKNKCPEPNCRVKKSLHGHHPRDCLFYLRDWTALRLQKLLQDNNVMFNTEPPAGARAVPGGGCRVIEQKEVPNGLRDEACGKETPAGYAGLCQAHYKEYLVSLINAHSLDPATLYEVEELETATERYLHVRPQPLAGEDPPAYQARLLQKLTEEVPLGQSIPRRRK

# From publication PMC12441119 (2025)
